# Reference: PMC8229911
# Molecular target: Lrp transcriptional regulator from Haloferax mediterranei (HFX_RS01210) (Haloferax mediterranei)
# Assay: SEC; Superose6 Increase 10/300 GL, 50 mM Tris-HCl pH 8.0, 150 mM NaCl; molecular mass estimated against standard proteins of 6.5 to 660 kDa in the same buffer
substance,measurement,value
Lrp transcriptional regulator from Haloferax mediterranei (HFX_RS01210) (natural protein),stoichiometry N,4
